Measurements: article PMC6035297 (2018)
Square brackets hold non-standard residues; d marks the D form. Ends that are not written are not given here. pY = N[C@@H](Cc1ccc(OP(=O)(O)O)cc1)C(=O)O

Molecular target: T1, CTpY phosphopeptide (PLCγ1 pTyr783) 779-790 (Homo sapiens, UniProt P19174)
T1 chain: NPGF[pY]VEANPMP
Assay: NMR titration

Kd: < 15 µM
B1: PLCγ1 tandem SH2 (NSH2CSH2ΔCT) nSH2-cSH2 545-770 (protein)
chain: HSNEKWFHGKLGAGRDGRHIAERLLTEYCIETGAPDGSFLVRESETFVGDYTLSFWRNGKVQHCRIHSRQDAGTPKFFLTDNLVFDSLYDLITHYQQVPLRCNEFEMRLSEPVPQTNAHESKEWYHASLTRAQAEHMLMRVPRDGAFLVRKRNEPNSYAISFRAEGKIKHCRVQQEGQTVMLGNSEFDSLVDLISYYEKHPLYRKMKLRYPINEEALEKIGTAEPD
